Measurements taken from the supplement of paper PMC9170038.

Assays:
MS2 coat protein [1] = assay: apparent KD of MS2 coat protein; designed switch direction (-1 OFF switch, 1 ON switch): -1; higher = weaker reporter binding; settings: Eterna round: R98
Experimental: (§1)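 RNA-MaP: designed FMN/MS2 RNA switches (84 nt design region) are transcribed on-chip within common flanks and titrated with SNAP-549-labelled MS2 coat protein (about 1-3000 nM) in 100 mM Tris pH 7.5, 80 mM KCl, 4 mM MgCl2, without or with 200 uM FMN. Median apparent KD per design; activation ratio = KD,OFF / KD,ON.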

MS2 coat protein [2] = assay: apparent KD of MS2 coat protein; designed switch direction (-1 OFF switch, 1 ON switch): 1; higher = weaker reporter binding; settings: Eterna round: R98
Experimental: as §1

Sequence | apparent KD of MS2 coat protein (MS2 coat protein [1]; input ligand: FMN 200 uM) [nM] | apparent KD of MS2 coat protein (MS2 coat protein [1]; input ligand: none) [nM] | apparent KD of MS2 coat protein (MS2 coat protein [2]; input ligand: FMN 200 uM) [nM] | apparent KD of MS2 coat protein (MS2 coat protein [2]; input ligand: none) [nM]
UAACAGCGAAGAUAAUAAUGAAUACAUGAGGAUCACCCAUGUAAGGAUAUCGUCAGGAAUACUGACGAGAAGGUACAUACGCUG [Exclusion NG 3/17-B2] | 23.2 | 16.7 |  | 
GGAGACCUCACAGGAUAUGCUGGACUUUGUCCAGCAGAAGGGUGAACAUGAGGAUCACCCAUGUAGGUCUCCAAAAUAUUUAAU [Denovo 50] |  |  | 989 | 100
CCGUUGCAAAUAAAACAUGAGGAUCACCCAUGUGAGUCUCAUGAGGAUAUGCAGGUCAAAGACUUGCAGAAGGCAUGGCGACGG [Mat - Same State NG 3 - JL Mod - D67] |  |  | 118 | 1520
AAUAAUCAGGUAGGAUAUGCUCAGGAAUACUGAGCAGAAGGACUAGAAACCUGAGGAUCACCCAGGUAACUGGAAUAAUAAUAA [Same State NG1 - A3C, U17G Submission 6A] |  |  | 53.6 | 78.3
CGAACCACUUAGGUACCACACAUGAGGAUCACCCAUGUAUCACAGGAUAUGCAUGAUAUAUUCAGGCAGAAGGGUGAUCUUACC [Esananti] |  |  | 265 | 24.7
AUGAAGAGGCAAGGAUAUCGAGUGCUGGGCCUAUACAUGAGGAUCACCCAUGUCCUGGCAGGACGUGAGAAGGUGUAUCGAAUA [Ussotemaa] |  |  | 455 | 244
UCACUCACGUUAGGAUAUGGAUCGGAAAACGAUCCAGAAGGAACCUGCAAACAAGAGGAUCACCCUUGUUCCAAUAACGAGUGA [SameSame 6 - Jieux - Same State NG 1] |  |  | 40.9 | 51.2
GCGCGCGCGCGCGCGCGCGCGCACAUGAGGAUCACCCAUGUAUAGGAUAUCGAUUGUUGUUGAUUCGAGAAGGGUAGCGCGCGC [Exclusion NG3] | 44.1 | 39.4 |  | 
GAGCAGGUAAAUAAACUCAAUUACAUGAGGAUCACCCAUGUAUAGGAUAUCGUCAGGAAUACUGACGAGAAGGAUACAUCCUGC [Exclusion NG 3/14-A2] | 59.2 | 19.7 |  | 
GAAUAAUAGAUCCAAUUUAUCUACAUGAGGAUCACCCAUGUGCAGGAUAUGCUAAAAUUUAAUAAGCAGAAGGGCAAGAACGGC [JR_ExcNG3_Sub016] | 374 | 104 |  | 
GCAGAAGGUGCGGAGGAUCACCCUGUAAGGAUAUGCAUUAGCAAGGAUAUACAGAGGAUCACCCUGUAGAAGGUGCACUUCAAA [pwkr2 ssNG3 DX.6] |  |  | 779 | 3160
CAUGUAUGGUGAGGAUAUGCAAAGGAUCACCUUGUAGAAGGCAUCAGGUAGAAGGUGCAGAGGAUCACCCUGUAAGGAUAUAUC [pwkr2 ssNG1 DX.23] |  |  | 72 | 249
GACGAAUUCUUAGGAUAUCGAGUGGAUAACACUCGAGAAGGAAGAUAUACCUGAGGAUCACCCAGGUUAAACUGGACGUCAAUA [Same State NG1 - A3C, U17G Submission 8C] |  |  | 53.6 | 205
AUCUAUCGGUCAGGAUAUUCACAUGAGGAUCACCCAUGUGAGCCUCGGCCAAAGUGAACGCAUGUGAAGAAGGGACGGCAAAAC [Atceen] | 33.4 | 27.8 |  | 
AUAUAAAAUAUAGGAUAUGGAAACAUGAGGAUCACCCAUGUAUGAUAAGAUAAAUAAUGAUAUAGCCAGAAGGAUACAAUAUAA [LRO008_SS NG 2] |  |  | 47.5 | 38.2
